From patent publication US20240288446A1, “METHOD FOR DIAGNOSING FIBRINOLYTIC INSUFFICIENCY RELATED TO NEUTROPHIL EXTRACELLULAR TRAPS” (Hôpitaux Universitaires de Strasbourg, priority 2019, published 2024) come the findings set out here.

For this assay, the system named is septic shock plasma euglobulin fraction on fibrin-bound tPA. The experiment in a line: Plasmin formation on tPA-fibrin surfaces from euglobulin fraction of septic shock plasma supplemented with plasminogen. The class given is biochemical, human. The following applies: plasminogen normalized to 1.5 μM. On the procedure:
FIG. 5 represents the Fibrinolytic activity of plasma isolated from septic shock. The fibrinolytic activity of plasma was tested by incubating the corresponding euglobulin fraction with fibrin surfaces to which tPA (50 iu/ml) was previously bound. The euglobulin fraction contains plasminogen and plasminogen fragments bearing K1, K4 and K5 as identified by mass spectrometry (see text and Supplemental file). The amount of plasmin formed was quantified by measuring the change in absorbance at A405 nm using a chromogenic substrate selective for plasmin as indicated in FIG. 3. […]
Plasminogen was quantified with a functional activity assay as described with modifications.(41) Briefly, plasmas were diluted 1:50 in assay buffer (Phosphate 80 mM, NaCl 50 mM, BSA 2 mg/ml), supplemented with 75 i.u./ml urokinase, 1 mM tranexamic acid and 0.75 mM of the plasmin-selective chromogenic substrate in a final volume of 50 μl. […] Plasminogen fragments present in plasma were initially detected by Western blot as indicated above. […] Plasmin formation on fibrin matrices was measured using the euglobulin fraction from healthy control and patient plasmas as source of plasminogen as indicated above. […] Kinetics of plasminogen transformation into plasmin was followed during 1 h by measuring the release of pNA at A405 nm and the initial velocity of the reactions were calculated as indicated above. […]

B1: purified plasminogen: Human Glu-plasminogen, purified, over 99% pure; 92-kDa single-chain proenzyme (SEQ ID NO 1) (protein, listed as Homo sapiens)
chain: EPLDDYVNTQGASLFSVTKKQLGAGSIEECAAKCEEDEEFTCRAFQYHSKEQQCVIMAENRKSSIIIRMRDVVLFEKKVYLSECKTGNGKNYRGTMSKTKNGITCQKWSSTSPHRPRFSPATHPSEGLEENYCRNPDNDPQGPWCYTTDPEKRYDYCDILECEEECMHCSGENYDGKISKTMSGLECQAWDSQSPHAHGYIPSKFPNKNLKKNYCRNPDRELRPWCFTTDPNKRWELCDIPRCTTPPPSSGPTYQCLKGTGENYRGNVAVTVSGHTCQHWSAQTPHTHNRTPENFPCKNLDENYCRNPDGKRAPWCHTTNSQVRWEYCKIPSCDSSPVSTEQLAPTAPPELTPVVQDCYHGDGQSYRGTSSTTTTGKKCQSWSSMTPHRHQKTPENYPNAGLTMNYCRNPDADKGPWCFTTDPSVRWEYCNLKKCSGTEASVVAPPPVVLLPDVETPSEEDCMFGNGKGYRGKRATTVTGTPCQDWAAQEPHRHSIFTPETNPRAGLEKNYCRNPDGDVGGPWCYTTNPRKLYDYCDVPQCAAPSFDCGKPQVEPKKCPGRVVGGCVAHPHSWPWQVSLRTRFGMHFCGGTLISPEWVLTAAHCLEKSPRPSSYKVILGAHQEVNLEPHVQEIEVSRLFLEPTRKDIALLKLSSPAVITDKVIPACLPSPNYVVADRTECFITGWGETQGTFGAGLLKEAQLPVIENKVCNRYEFLNGRVQSTELCAGHLAGGTDSCQGDSGGPLVCFEKDKYILQGVTSWGLGCARPNKPGVYVRVSRFVTWIEGVMRNN
Consider B1, for which the “amount of plasmin formed after plasminogen supplementation” value is “increased with a trend to normality” (plasma samples S1, S3, S5) and “insufficient or scant response” (plasma samples S2, S4, S6).
